Assay results as given in PMC11900858.

Legend:
[1] = biological target: FcαμR (mouse) (UniProt Q2TB54)
[2] = biological target: FcμR (mouse) (UniProt A1KXC4)
[3] = biological target: FcRn (mouse) (UniProt Q61559)
[4] = biological target: FcγRI (mouse) (UniProt P26151)
[5] = biological target: FcγRIIB (mouse) (UniProt P08101)
[6] = biological target: FcγRIII (mouse) (UniProt P08508)
[7] = biological target: FcγRIV (mouse)

UniProt P26151, sequence (P26151 25-404): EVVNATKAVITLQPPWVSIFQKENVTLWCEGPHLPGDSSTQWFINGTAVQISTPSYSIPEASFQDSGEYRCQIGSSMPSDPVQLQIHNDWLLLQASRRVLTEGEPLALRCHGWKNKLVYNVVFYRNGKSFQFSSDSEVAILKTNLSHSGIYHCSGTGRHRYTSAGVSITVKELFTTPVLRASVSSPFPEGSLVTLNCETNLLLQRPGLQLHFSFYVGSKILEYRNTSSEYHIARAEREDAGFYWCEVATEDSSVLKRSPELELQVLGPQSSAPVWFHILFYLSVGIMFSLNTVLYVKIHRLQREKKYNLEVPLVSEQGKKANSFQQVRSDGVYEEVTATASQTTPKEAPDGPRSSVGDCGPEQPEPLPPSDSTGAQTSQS
UniProt P08101, sequence (P08101 30-330): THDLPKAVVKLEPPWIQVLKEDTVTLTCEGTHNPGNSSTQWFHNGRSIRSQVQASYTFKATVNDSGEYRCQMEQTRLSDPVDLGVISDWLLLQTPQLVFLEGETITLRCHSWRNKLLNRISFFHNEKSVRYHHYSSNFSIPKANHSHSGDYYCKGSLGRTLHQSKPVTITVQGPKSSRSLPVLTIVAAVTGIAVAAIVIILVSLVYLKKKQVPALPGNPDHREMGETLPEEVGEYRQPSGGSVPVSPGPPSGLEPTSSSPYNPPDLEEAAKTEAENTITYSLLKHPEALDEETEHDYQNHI
UniProt Q2TB54, sequence (Q2TB54 36-535): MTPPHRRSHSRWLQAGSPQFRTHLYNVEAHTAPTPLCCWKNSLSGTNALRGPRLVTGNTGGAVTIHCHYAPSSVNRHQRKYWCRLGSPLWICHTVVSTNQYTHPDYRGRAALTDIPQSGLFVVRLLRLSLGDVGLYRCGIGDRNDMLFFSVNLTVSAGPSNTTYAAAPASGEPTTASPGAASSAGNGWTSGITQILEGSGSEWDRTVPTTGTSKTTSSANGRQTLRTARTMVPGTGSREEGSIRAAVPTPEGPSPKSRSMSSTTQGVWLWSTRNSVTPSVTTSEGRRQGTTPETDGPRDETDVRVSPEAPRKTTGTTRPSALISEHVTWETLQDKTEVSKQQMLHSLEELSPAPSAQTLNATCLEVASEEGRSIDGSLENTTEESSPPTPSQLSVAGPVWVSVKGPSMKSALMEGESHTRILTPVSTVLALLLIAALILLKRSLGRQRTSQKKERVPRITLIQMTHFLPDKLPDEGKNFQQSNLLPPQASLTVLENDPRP
UniProt Q61559, sequence (Q61559 22-365): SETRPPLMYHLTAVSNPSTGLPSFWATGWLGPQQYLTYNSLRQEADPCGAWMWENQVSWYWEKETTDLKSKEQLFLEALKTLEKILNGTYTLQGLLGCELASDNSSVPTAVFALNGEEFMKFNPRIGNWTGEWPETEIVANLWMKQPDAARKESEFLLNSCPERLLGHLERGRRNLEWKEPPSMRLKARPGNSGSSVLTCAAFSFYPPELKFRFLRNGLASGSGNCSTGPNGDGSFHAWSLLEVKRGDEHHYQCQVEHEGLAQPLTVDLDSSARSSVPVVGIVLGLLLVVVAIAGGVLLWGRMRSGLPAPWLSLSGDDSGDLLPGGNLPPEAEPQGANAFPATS
UniProt P08508, sequence (P08508 31-261): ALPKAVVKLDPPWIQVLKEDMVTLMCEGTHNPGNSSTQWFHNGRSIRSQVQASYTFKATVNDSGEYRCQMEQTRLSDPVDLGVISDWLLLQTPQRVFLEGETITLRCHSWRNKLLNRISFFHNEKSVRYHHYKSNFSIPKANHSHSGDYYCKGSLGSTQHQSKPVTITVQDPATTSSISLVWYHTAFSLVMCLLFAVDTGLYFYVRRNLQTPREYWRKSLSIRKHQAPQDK
UniProt A1KXC4, sequence (A1KXC4 17-422): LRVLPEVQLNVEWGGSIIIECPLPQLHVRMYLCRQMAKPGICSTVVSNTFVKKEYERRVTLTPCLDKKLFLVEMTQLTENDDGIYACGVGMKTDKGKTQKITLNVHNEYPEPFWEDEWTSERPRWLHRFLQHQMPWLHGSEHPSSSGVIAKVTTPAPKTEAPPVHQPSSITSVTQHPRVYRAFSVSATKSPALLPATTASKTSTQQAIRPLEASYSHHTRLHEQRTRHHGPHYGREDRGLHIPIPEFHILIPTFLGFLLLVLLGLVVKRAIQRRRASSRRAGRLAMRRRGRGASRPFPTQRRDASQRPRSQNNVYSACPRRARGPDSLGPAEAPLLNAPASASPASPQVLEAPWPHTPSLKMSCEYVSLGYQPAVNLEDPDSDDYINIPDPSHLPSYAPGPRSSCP

T15 IgM (murine monoclonal anti-phosphocholine antibody of the T15 idiotype, IgM form) (from UniProt P01592 22-159)
< 5%: adhesion of T15 IgM-opsonized Spn6A pneumococci to CHO cells stably expressing the receptor (MOI 1, T15 antibody 50 μg/ml); no notable increase; anti-capsule antibody control 85% binding [1] | adhesion of T15 IgM-opsonized Spn6A pneumococci to CHO cells stably expressing the receptor (MOI 1, T15 antibody 50 μg/ml); no notable increase; anti-capsule antibody control 85% binding [2]

T15 IgG3 (murine monoclonal anti-phosphocholine antibody of the T15 idiotype, IgG3 form)
< 5%: adhesion of T15 IgG3-opsonized Spn6A pneumococci to CHO cells stably expressing the receptor (MOI 1, T15 antibody 50 μg/ml); no notable increase; anti-capsule antibody control 85% binding [3] | adhesion of T15 IgG3-opsonized Spn6A pneumococci to CHO cells stably expressing the receptor (MOI 1, T15 antibody 50 μg/ml); no notable increase; anti-capsule antibody control 85% binding [4] | adhesion of T15 IgG3-opsonized Spn6A pneumococci to CHO cells stably expressing the receptor (MOI 1, T15 antibody 50 μg/ml); no notable increase; anti-capsule antibody control 85% binding [5] | adhesion of T15 IgG3-opsonized Spn6A pneumococci to CHO cells stably expressing the receptor (MOI 1, T15 antibody 50 μg/ml); no notable increase; anti-capsule antibody control 85% binding [6] | adhesion of T15 IgG3-opsonized Spn6A pneumococci to CHO cells stably expressing the receptor (MOI 1, T15 antibody 50 μg/ml); no notable increase; anti-capsule antibody control 85% binding [7]
